Target: T1, MdMYB1-HIS (Malus domestica, UniProt M1UZJ0 1-243)
T1 sequence: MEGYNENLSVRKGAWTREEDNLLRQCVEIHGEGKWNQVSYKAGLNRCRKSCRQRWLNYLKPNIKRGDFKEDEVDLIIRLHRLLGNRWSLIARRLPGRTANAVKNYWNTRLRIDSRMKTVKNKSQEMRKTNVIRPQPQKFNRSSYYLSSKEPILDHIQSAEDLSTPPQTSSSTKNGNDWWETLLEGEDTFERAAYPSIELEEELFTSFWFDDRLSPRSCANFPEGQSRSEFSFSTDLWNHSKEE
Test: EMSA; Proteins and biotin probes mixed in binding buffer for 25 min, acrylamide gel; buffer, salt, pH and temperature not stated
Details: protein: recombinant; tags: His (pET32a); label: biotin; blunt

B1: MdUF3GT-Probe (dsDNA)
DNA 1: ACCTTCCCGTCAGTTATTGCAGGTGG
DNA 2: CCACCTGCAATAACTGACGGGAAGGT
Does B1 bind?
Result: binds

B2: MdDFR-Probe (dsDNA)
DNA 1: CGTGCGTCAACCGTTAGGAAAGCACG
DNA 2: CGTGCTTTCCTAACGGTTGACGCACG
Does B2 bind?
Result: binds
